B1: unmodified H3 10mer effector peptide (H3 Ala1-Ser10) [not stated] / GST-PHD1 (S287-K347) of KDM5A [human] (parent)
chain 1: ARTKQTARKS
chain 2: SVNFVDLYVCMFCGRGNNEDKLLLCDGCDDSYHTFCLIPPLPDVPKGDWRCPKCVAEECSK

Variants of B1 are the subject of the assay. Briefly: competition-based fluorescence polarization assay. As to conditions: with GST-PHD1 (S287-K347) of KDM5A [human].
On to chain 1 R2A, for which the Kd turned out to be 205 µM.

The values above are taken from paper PMC6327041, “Histone H3 binding to the PHD1 domain of histone demethylase KDM5A enables active site remodeling” (Nature Communications, 2019).
